The data set in a line: label from the status in PepcDB records.
With “MKVLFIHPFGSNWLGTGTDITTIFNLMPPLGLLSIAAFLEARGIGTEVIDCYATPMPAETLVAEVIRRRPDVVGFSCTTSSFLEGYSIAERIKEKAPGITTVFGGAHACSVGVGLLDTFPAIDYLVIGEGEQTFFELVTNLDHGGSGIPGVGYRENGKGVISALREHIANLDDLPFPAYHRLPQFPKRYILPLFSYPKAPNTSIISSRGCPYQCSYCDRSVFSRGFRFNSPEYIVEHLKMLNRDYGIRHVFFYDDLFTTDRARVARFCELKERERLPVTYNCIARLEHVDAELLRLLKRSGCWQVNFGIESGDPEVIKKHRKFYGLDEVQRKLQLVRDTGMRVKGLFMVGLPGETEESIRRTIDYALALPLDEINVTKFTPFPGAPLYATIREQGEFDENWPLMNCLNFVFVPHGMTREQLEGLYNEFISRFYRRSRIHWGYTKMLWKSPHSVATFLRHLPEILAFELKQKW”, the protein production entry is listed as “failed”. Turning to “MKVLITDFDLFAKVGGGQTFYRSLIRKNPDIDFYYLIDKEARVTERPDNAHGVPFQEKYFLADLNNFFDVNPPKWVYRSFIRASNIATSVAGMEFDLIDSPDYEQWAIFLRPALDYHRVKFAKIALSLHGKISTTLKLDWFNQGKENIPLELEEWKQYATVDLRYGISKSYIDEWQSLSRFSAHYYHPLHFFELPQPLEAIASGDRPDLNFVGRTEKRKGPDIFIDIAWWLNRNLYHEANIIGPHSFNDTGTISSETYLRSMLGDRQSPVKFLPPKPQQELMGLFARKTVTFVPSRYDTLNLVALESLFSGCPTVVGGGAGVCRLLKEDFPDVPFVEIDLDNIYSCLPAIENILSDYNNYRRRLVDSVKNSTAIADSPILADIYQQTGQYEEEIRDELQSWYGQLMGYWVSTQENVSFLQPLKAQLKPTLKQIKNNLKSTAGQLKGKILQPLADDRNAQLVKAPNLLKKYKEAFNATEQTAKDLAEKIQMGWRLGSGYESEFQGVRGKLATNYRIDRVRLWRELARIEELRGNTLVSATYKVRALRALGSDQFGDLPFVLRTLTEYGFPKEMAAVSALYGQPSEREERCLSLIEQARLDNLANPAGDEYEIWDDRRGDGPYRASIIVSLYNAAAKLPLFLKTLQHQTLIKRGEAEVVLVDSGSPGNEYEVFKDLAPTLGYPLLYARSPQRETIQSAWNRGIKLAKSPYLAFLGVDETILPDCLEILAGELDQDPELDWAIGHSLVTNVDMQGGWVSDIMPYDRTGYEQDLVYLETCYLSWVGALYRKSIHERFGYYDQSFRGAGDTEFKNRVMPFIKSKVVDKMLGLFWNYPDERTTQSPATEIEDMRAWYLHRTLAGVKYAFQRRSPREVENLLYHCLGYRKSYCKHTSTDFDHAHNLVTYLEKVDPNAEALKYAPGIEALLGTYRSLDWLPKLSKFSPLNSMLTARKLTKQWEQEHQQSWPEDRLFSPHYSIFNDNRHEQHSFLWFTDITASKK”, the protein production result is “failed”.

Regarding “MKVLLIIPAYNEEENILRTIASIETFKQEVTHFQHELDYVVINDGSTDGTKQILEANQINAIHLVLNLGIGGAVQTGYKYALENEYDVAVQFDGDGQHDINSLPILLEPLAEGKCDFSIGSRFIPGNEASFQSTKMRRFGIRLLSFCIRMASGKTIYDVTSGYRAGNRKVIAFFAKRYPTNYPEPESIVHLIKKRFVIVERPVNMMERLGGVSSIRALASVKYMLEVGSAILIAAFMKEGDLEHHHHHH”, the protein production entry is “not failed”.

Take “MKVLTVVIPCYNSAEYMDRAIESLLIGDEELEILIVNDGSMDNTSIIADEYEKKYPNTIRVIHKENGGHGDAINTGLKHSKGVYFKVLDSDDWFDKASLKKVLEVLKNMIKDSKSLDMLISNYVYENFSINKSRSINYKGAMPKEKIFTWDSLGHLKSSQNILMHSVIYRTELLRECNLDLPKHTFYVDNIFVYKPLPYVKTMYYLDVDLYRYFIGREDQSVNEKVMIKRIDQQIKVTKILIDCYNPMLLNCKKLRKYMVKYLVMMMTVSTVLLIKDNTEQSLNKKRELWSYLHSKNRKLYFEVNKSFLGLLIQIKGFVGRKIILLGYSLSRKVFGFNLEHHHHHH”: the protein production result is “failed”. Consider “MKVNILMATYNGEKFLAQQIESIQKQTFKEWNLLIRDDGSSDKTCDIIRNFTAKDSRIRFINENEHHNLGVIKSFFTLVNYEVADFYFFSDQDDVWLPEKLSVSLEAAKHKASDVPLLVYTDLKVVNQELNILQDSMIRAQSHHANTTLLPELTENTVTGGTMMINHALAEKWFTPNDILMHDWFLALLAASLGEIIYLDLPTQLYRQHDNNVLGARTMDKRFKILREGPKSIFTRYWKLIHDSQKQASLIVDKYGDIMTANDLELIKCFIKIDKQPFMTRLRWLWKYGYSKNQFKHQVVFKWLIATNYYNKRLEHHHHHH”, for which the protein production result was “not failed”.

Regarding “MKVPEAAISRLITYLRILEELEAQGVHRTSSEQLGELAQVTAFQVRKDLSYFGSYGTRGVGYTVPVLKRELRHILGLNRKWGLCIVGMGRLGSALADYPGFGESFELRGFFDVDPEKVGRPVRGGVIEHVDLLPQRVPGRIEIALLTVPREAAQKAADLLVAAGIKGILNFAPVVLEVPKEVAVENVDFLAGLTRLSFAILNPKWREEMMG”, the protein production entry is listed as “not failed”. In the case of “MKVPKYQLIQNDLRQQIVSGKFENGDKFYTESELTKLFNVSSITVIRAVNELVKDGYLVRQQGKGTFVSRSRKGRLVEFSDIEIFPMDKDKVTVLSCEKGNKPDILEKLNLDKNEFYYKIVRVRAAEDTPYIFHNSYIPQRYIQNPDAPLEHYQSIYQRFKLDYNIHMSEEPFVETNEIVSPCPKEVATHLKLKATEPAVLQNKTTTNSTSGEVMEYTETYKHWKYYKFEITANHR”, the protein production result is recorded as “not failed”.

On to “MKVSILIITYNHSHFIAQAIESVLMQKVKFEYEIVIGEDSSTDNTRQILLDYQKQYSDKIRLLLPEKNLGMHRNFVNTLQACRGEYIAILEGDDYWIADDKLQKQVEFLDENPDFTICFHNVMVFHEDNQYQPYIFLHNQPTVSYIEDLLIRNFISTPSVMYRNGLVESIPTWFYEQGMGDWIFHILNAQYGKIGYIDEVMSAYRIHVQGVWSSKSRDWQLKETIRMLDTIKSNVNVRYAEIIDRAVQFYSEQLLYLVPESQEVTPVLNTSLPNYLQIKDINFIAFPDWNQPEELLYQSLYYAIKLFLTHPENNKIALFIDTTDISEEDADIYISSTLMNLMLEEELEESHKINVFLIGELDQIQWQTLLSFLKARIVLPSENLDAILASGTAIIPCLTVEQLIEFDLTFIESAKPYKLNIGCGNVRFHGWINIDIEQNYKTVDLVCDARQKLPFNDNSCDLIYNEHFLEHLTLEEGLFFLKECHRILKPEGILRIAMPSLEYVVQKYMSDDWRNQEWLNYPEYQFIKTRAEMLNIAMRWWGHQWLYDTEELHRRLTESGYINVQNFAWGKSNTPDLRNRETRVDSILICESQALK”, for which the protein production entry is given as “failed”. In the case of “MKVTDVRLRKIQTDGRMKALVSITLDEAFVIHDLRVIEGNSGLFVAMPSKRTPDGEFRDIAHPINSDMRQEIQDAVMKVYDETDEVVPDKNATSEDSEEA”, the protein production entry is reported as “not failed”. Under “MKVYLHFSPQFFANTYLIGNEITKEAVIIDPAKITEKMIHQIEKNEFNLKAVLLTHDLEHPYETGLNTILKIYSPKVYAGSCFSENVTINTLRGDGCIDVAGYSVRYFAIPAHSSYSYMFQIENMVFTGTSLSAGMIGQTSNMYAERTLRNILKTKLMCFEDNLIIMPFYGPPTSIGVERKYNASFFQDLEHHHHHH” stands “failed”; under “MKVYVVVPTYNESDNIVALMEKILAQRDNIHVLVVDDNSPDGTGEIAARMSSDNPRIHVLRRSGKMGLGSAYCDGFRVALRDGADFIIEMDADFSHDPATIPALLAATDKYDVVVGSRYLNGVSVVNWPIRRLMLSYFASVYTRFVTGLALRDCTSGFKCFRRRVIESVDLDTIRSDGYSFQIEMNYRCVERGFRVGEIPIIFIDRHAGSSKMSKKIVREAVLMVWKLKLGSLVKKLTRRGDRHAALEHHHHHH”, “not failed”. Turning to “MKWILAVGLLSCSVAMAQQQSDILSVSASANAENAALAFDRNVKTMWTIPSQALKAEQWLMFTIQQPGDVCELDLQMQGINKNELKEVLDIFVTYDPMNLGTPVNYRIEGSDKQMKVKFTPKYGAHVKLNFKSGKLDKPFSLKEISVLVAEKVLTDSQGKVTDRRYMDASLPVEERVESLLAVMTPEDKMELIREGWGIPGIPHLYVPPITKVEAVHGFSYGSGATIFPQALAMGATWNRKLTEEVAMVIGDETVAANTKQAWSPVLDVAQDARWGRCEETFGEDPVLVSQIGGAWIKGYQSRGLFTTPKHFGGHGAPLGGRDSHDIGLSEREMREIHLVPFRHAIRNYDCQSLMMAYSDYMGVPVAKSKELLQQILRQEWGFNGFIVSDCGAIGNLTARKHYTAKDKIEAANQALAAGIATNCGDTYNNKEVIQAAKDGRINMEDLDNVCRTMLGTMFRNELFEKNPCKPLDWKKIYPGWNSDSHKEMARQAARESIVMLENKDNLLPLSKTLRTIAVLGPGADDLQPGDYTPKLLPGQLKSVLTGIKGAVGKQTKVLYEQGCDFTNPDETNIPKAVKAASQSDVVIMVLGDCSTSEATNDVRKTCGENNDWATLILPGKQQELLEAVCATGKPVILILQAGRPYDILKASEMCKAILVNWLPGQEGGPAMADVLFGDYNPAGRLPMTFPRHVGQLPLYYNFKTSGRRYEYVDMEYYPLYRFGFGLSYTSFEYSNLKIQEKANGNVEVQATVKNVGSRAGDEVAQLYVTDMYASVKTRVMELKDFARIHLQPGESKTVSFEMTPYDISLLNDRMDRVVEKGEFKIMVGGMSPDYVAKNEIKHSVGYSDNKKGVTGMLNYTHEFGANFDLAVSKVEENLVKNQKTVWVSVKNTGTLMDIGKVEMFVDGKKVGDAVHYELGAGEEKLIPFKLAKENKQPVAFTTKYKMVSM”, the protein production entry is “failed”.

On to “MKWLKHFQSLHTKLVIVYVLLIIIGMQIIGLYFTNSLEKELTQTFKNNISQYAKQIEINIEKVYDEDNAINAQKEVQNLLNEYANRQEIEEIRFIDKDQIIMATSKQSTRSLINQKANDNSIQKALSLGEINSHTVLKDYGNGKQRVWVYNLPVKTSNDGTIGDVYIEADINDVYNQLSNINQIFIVGTGISLLITVILGFFIARTITKPITDMRNQTVEMSKGNYTQRVKIYGNDEIGELALAFNNLSKRVQEAQANTESEKRRLDSVITHMSDGIIATDRRGRVRIVNDMALTMMGTMKEDIIGDHMLKVLKLEEDFSLDEIQENNDSFLLDINENEGIIARVNFSTIVQETGFVTGYIAVLHDVTEQQQVERERREFVANVSHELRTPLTSMNSYIEALESGAWKDGELAPQFLSVTREETERMIRLVNDLLQLSKMDNESEQITKEIVDFNMFINKIINRHEMSAKDTTFVREVPTETIFTEIDPDKMTQVFDNVITNAMKYSRGDKRVEFHVKQNALYNRMTIRVKDNGIGIPINKVDKIFDRFYRVDKARTRKMGGTGLGLAISKEIVEAHNGRIWANSVEGQGTSIFITLPCEVLEDGDWDAE”, for which the protein production entry was “failed”.

“MKWPWWPVCVPLSKRLTLPLPSTANPVVQPSRLALACANRLFEAADNRERFLQALMTPPAYPATVLWCGEPAAALPFAALPPLPWQPPWVSRFVAGSPTGQHPLHAAGAYYCLDSSSVFAAVPLLTLPQEPSLVIDVCAAPGGKSLFAWRSLHPRYLICNETIGKRVGKLIGNLKRCRVHPVGVTSWDSEVLAAEFQGTADVVIVDAPCSGQSLLAKGQKAEGCFHPLTIRHNQRRQKRILAAATTLVRPGGWLLYSTCTFSQDENEDVAAWLMAKFPHLLPQPVPALAAYQSHLAAFPCYRLWPHQGEGAGAFTILWQHQGLEHHHHHH”: the protein production entry is listed as “not failed”. In the case of “MKWTTANTKHVNYTAKHELYVGTHTGSFKHLVPASEKTPYGQSNLSDLCALDKDSRVTSLAFGNDDQTEILLGRAKDAVEIHSFTEKGHSRNTVSFNAAPIVGLARYNDKLIAGIGNGEIQSLELEANDESEPVVIATGDQMDHLRQCAQVKSIVATGGKERQNNLKVYDLNADGKQIFTSKNLPNDYLQLEVPVWDSDIGFVDGPSVLATCSRTGYVRIYDTRKQRRPVACFASEEHGMSFTTLVAKGNFIYTGTTMGALKAFDTRRMKTHVHTYKGFTGGISDLHLDATGRFLSSASLDRYVRIHDSETTVLLYQCYVKSKATKILIRPFENEARVTEEPEEVADLQMDRNVSENKSVNATSVDNEYEDMFDQMPTVGDSDNESEEEMSNIKLSKADLKRRSSEKSLKNKKKKVVIS”, the protein production entry is reported as “failed”.

Values taken from a protein production outcome set (Wang et al. 2014).
